Assay results from patent US20130195871A1 (AbbVie / Abbott, published 2013).
One block for each binder: values may come before it.

Key:
[1] = biological target: T1, EGFR on the cell surface (human, UniProt P00533 25-1210); assay: flow cytometry on cells, 2 ug/mL, N-terminal VD;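 note: cells stained for 30 to 60 min on ice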
T1 construct: whole, on cells
Description: Stable cell lines overexpressing a cell-surface antigen of interest or human tumor cell lines were harvested from tissue culture flasks and resuspended in phosphate buffered saline (PBS) containing 5% fetal bovine serum (PBS/FBS). Prior to staining, human tumor cells were incubated on ice with (100 μl) human IgG at 5 μg/ml in PBS/FCS. 1-5×10⁵ cells were incubated with antibody or DVD-Ig (2 μg/mL) in PBS/FBS for 30-60 minutes on ice. […] After 30 minutes incubation on ice, cells were washed twice and resuspended in PBS/FBS. Fluorescence was measured using a Becton Dickinson FACSCalibur (Becton Dickinson, San Jose, Calif.).
The geometric mean is the n root of the multiplication product of n fluorescent signals (a1×a2×a3 . . . an). With log-transformed data the geometric mean is used to normalize the weighting of the data distribution.

[2] = biological target: T2, Recombinant Human MSP Receptor ECD-His tag (human, UniProt Q04912 25-957); assay: SPR (Biacore), C-terminal VD;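 note: surface plasmon resonance with DVD-Ig proteins captured on an anti-IgG chip and recombinant antigen flowed over in HBS-EP buffer, Langmuir global fit, KD taken as koff/kon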
T2 construct: extracellular domain; bought reagent; also called RON
Description: (§1) The BIACORE assay (Biacore, Inc, Piscataway, N.J.) determined the affinity of antibodies or DVD-Ig proteins with kinetic measurements of on-rate and off-rate constants. Binding of antibodies or DVD-Ig proteins to a target antigen (for example, a purified recombinant target antigen) was determined by surface plasmon resonance-based measurements with a Biacore® 1000 or 3000 instrument (Biacore AB, Uppsala. Sweden) using running HBS-EP (10 mM HEPES [pH 7.4], 150 mM NaCl, 3 mM EDTA, and 0.005% surfactant P20) at 25° C. […] For example, approximately 5000 RU of goat anti-mouse IgG, (Fcγ), fragment specific polyclonal antibody (Pierce Biotechnology Inc, Rockford, Ill.) diluted in 10 mM sodium acetate (pH 4.5) was directly immobilized across a CM5 research grade biosensor chip using a standard amine coupling kit according to manufacturer's instructions and procedures at 25 μg/ml. Unreacted moieties on the biosensor surface were blocked with ethanolamine. Modified carboxymethyl dextran surface in flowcell 2 and 4 was used as a reaction surface. Unmodified carboxymethyl dextran without goat anti-mouse IgG in flow cell 1 and 3 was used as the reference surface. For kinetic analysis, rate equations derived from the 1:1 Langmuir binding model were fitted simultaneously to association and dissociation phases of all eight injections (using global fit analysis) with the use of Biaevaluation 4.0.1 software. Purified antibodies or DVD-Ig proteins were diluted in HEPES-buffered saline for capture across goat anti-mouse IgG specific reaction surfaces. Antibodies or DVD-Ig proteins to be captured as a ligand (25 μg/ml) were injected over reaction matrices at a flow rate of 5 μl/minute. The association and dissociation rate constants, kₒₙ (M⁻¹s⁻¹) and koff (s⁻¹) were determined under a continuous flow rate of 25 μl/minute. Rate constants were derived by making kinetic binding measurements at different antigen concentrations ranging from 10-200 nM. The equilibrium dissociation constant (M) of the reaction between antibodies or DVD-Ig proteins and the target antigen was then calculated from the kinetic rate constants by the following formula: KD=koff/kₒₙ. Binding was recorded as a function of time and kinetic rate constants were calculated.

[3] = biological target: T3, Recombinant Human ErbB3/FC Chimera-His tag (human, UniProt P21860 20-643); assay: SPR (Biacore), N-terminal VD;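 note: capture of antibodies or DVD-Ig proteins on an anti-mouse IgG chip surface, recombinant antigen injected at 10–200 nM in HBS-EP running buffer at 25 °C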
T3 construct: bought reagent
Description: as §1

[4] = biological target: T4, Recombinant Human IGF1R (human, UniProt P08069 31-932); assay: SPR (Biacore), N-terminal VD;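 note: capture of antibodies or DVD-Ig proteins on an anti-mouse IgG chip surface, recombinant antigen injected at 10–200 nM in HBS-EP running buffer at 25 °C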
T4 construct: bought reagent
Description: as §1

B1: DVD2302 (bispecific antibody)
VH: EVQLVESGGGLVQPGGSLRLSCAASGFSLTNYGVHWVRQAPGKGLEWLGVGWSGGNTDYNTPFTSRLTINKDNSKNTVYLQMNSLRAEDTAVYYCARALTWYDYEFAYWGQGTLVTVSSASTKGPEVQLVESGGGLVQPGGSLRLSCAASGFTFTDYTMDWVRQAPGKGLEWVADVNPNSGGSIYNQRFKGRFTLSVDRSKNTLYLQMNSLRAEDTAVYYCARNLGPSFYFDYWGQGTLVTVSS
VL: DILLTQSPGTLSLSPGERATLSCRASQSIYTNIHWYQQKPGQAPRLLIKYASESISGIPDRFSGSGSGTDFTLTISRLEPEDFAVYYCQQNLNWPTTFGQGTKLEIKRTVAAPDIQMTQSPSSLSASVGDRVTITCKASQDVSIGVAWYQQKPGKAPKLLIYSASYRYTGVPSRFSGSGSGTDFTLTISSLQPEDFATYYCQQYYIYPYTFGQGTKVEIK
notes: DVD-Ig, outer AB400 / inner AB080
GEO MEAN [1]: 563

B4: DVD2298 (bispecific antibody)
VH: EVQLVESGGGLVQPGGSLRLSCAASGFSLTNYGVHWVRQAPGKGLEWLGVGWSGGNTDYNTPFTSRLTINKDNSKNTVYLQMNSLRAEDTAVYYCARALTWYDYEFAYWGQGTLVTVSSASTKGPEVQLVQSGGGLVKPGGSLRLSCAASGFTFSSYAMHWVRQAPGKGLEWVAVISYDGSNKYYADSVKGRFTISRDNSKNTLYLQMNSLRAEDTAVYYCARFSGWPNNYYYYGMDVWGQGTTVTVSS
VL: DILLTQSPGTLSLSPGERATLSCRASQSIYTNIHWYQQKPGQAPRLLIKYASESISGIPDRFSGSGSGTDFTLTISRLEPEDFAVYYCQQNLNWPTTFGQGTKLEIKRTVAAPDVVMTQSPLSLPVTPGEPASISCRSSQSLLHSNGFNYVDWYLQKPGQSPHLLIYFGSYRASGVPDRFSGSGSGTDFTLKISRVEAEDVGVYYCMQALQTPPWTFGQGTKVEIR
notes: DVD-Ig, outer AB400 / inner AB005
GEO MEAN [1]: 400

B7: DVD2335 (bispecific antibody)
VH: QVQLQQWGAGLLKPSETLSLTCAVYGGSFSGYYWSWIRQPPGKGLEWIGEINHSGSTNYNPSLKSRVTISVETSKNQFSLKLSSVTAADTAVYYCARDKWTWYFDLWGRGTLVTVSSASTKGPQVQLQESGPGLVKPSEILSLTCTVSGGSISSHYWSWVRQPPGKGLEWIGYIYYSGSTNYNPSLKSRVTISVDTSKNQFSLNLSSVTAADTAVYYCARIPNYYDRSGYYPGYWYFDLWGRGTLVTVSS
VL: DIEMTQSPDSLAVSLGERATINCRSSQSVLYSSSNRNYLAWYQQNPGQPPKLLIYWASTRESGVPDRFSGSGSGTDFTLTISSLQAEDVAVYYCQQYYSTPRTFGQGTKVEIKRTVAAPQAVLTQPSSLSAPPGASASLTCTLRSGFNVDSYRISWYQQKPGSPPQYLLRYKSDSDKQQGSGVPSRFSGSKDASANAGILLISGLQSEDEADYYCMIWHSSAWVFGGGTKLTVL
notes: DVD-Ig, outer AB062 / inner AB034
Kd [2]: 39 nM
koff [2]: 0.0051 s⁻¹
kon [2]: 130000 M⁻¹ s⁻¹

B8: DVD2304 (bispecific antibody)
VH: EVQLVESGGGLVQPGGSLRLSCAASGFSLTNYGVHWVRQAPGKGLEWLGVGWSGGNTDYNTPFTSRLTINKDNSKNTVYLQMNSLRAEDTAVYYCARALTWYDYEFAYWGQGTLVTVSSASTKGPEVQLVQSGAEVKKPGSSVKVSCKASGGTFSSYAISWVRQAPGQGLEWMGGIIPIFGTANYAQKFQGRVTITADKSTSTAYMELSSLRSEDTAVYYCARAPLRFLEWSTQDHYYYYYMDVWGKGTTVTVSS
VL: DILLTQSPGTLSLSPGERATLSCRASQSIYTNIHWYQQKPGQAPRLLIKYASESISGIPDRFSGSGSGTDFTLTISRLEPEDFAVYYCQQNLNWPTTFGQGTKLEIKRTVAAPSSELTQDPAVSVALGQTVRITCQGDSLRSYYATWYQQKPGQAPILVIYGENKRPSGIPDRFSGSSSGNTASLTITGAQAEDEADYYCKSRDGSGQHLVFGGGTKLTVL
notes: DVD-Ig, outer AB400 / inner AB075
GEO MEAN [1]: 512

B9: DVD2306 (bispecific antibody)
VH: EVQLVESGGGLVQPGGSLRLSCAASGFSLTNYGVHWVRQAPGKGLEWLGVGWSGGNTDYNTPFTSRLTINKDNSKNTVYLQMNSLRAEDTAVYYCARALTWYDYEFAYWGQGTLVTVSSASTKGPEVQLVQSGGGLVKPGGSLRLSCAASGFTFSSFAMHWVRQAPGKGLEWISVIDTRGATYYADSVKGRFTISRDNAKNSLYLQMNSLRAEDTAVYYCARLGNFYYGMDVWGQGTTVTVSS
VL: DILLTQSPGTLSLSPGERATLSCRASQSIYTNIHWYQQKPGQAPRLLIKYASESISGIPDRFSGSGSGTDFTLTISRLEPEDFAVYYCQQNLNWPTTFGQGTKLEIKRTVAAPEIVLTQSPGTLSVSPGERATLSCRASQSIGSSLHWYQQKPGQAPRLLIKYASQSLSGIPDRFSGSGSGTDFTLTISRLEPEDFAVYYCHQSSRLPHTFGQGTKVEIK
notes: DVD-Ig, outer AB400 / inner AB077
GEO MEAN [1]: 546

Results, then the binder that gave them:

binding result [2]: no binding (tested: 10-200 nM)
Kd [3]: 5.4 nM
koff [3]: 0.0017 s⁻¹
kon [3]: 310000 M⁻¹ s⁻¹
B2: DVD2319 (bispecific antibody)
VH: EVQLVESGGGLVQPGGSLRLSCAASGFTFSIYSMNWVRQAPGKGLEWVSYISSSSSTIYYADSVKGRFTISRDNAKNSLYLQMNSLRDEDTAVYYCARDRGDFDAFDIWGQGTMVTVSSASTKGPEVQLVQSGGGLVKPGGSLRLSCAASGFTFSSYAMHWVRQAPGKGLEWVAVISYDGSNKYYADSVKGRFTISRDNSKNTLYLQMNSLRAEDTAVYYCARFSGWPNNYYYYGMDVWGQGTTVTVSS
VL: DIQMTQSPSSLSASVGDRVTITCQASQDITNYLNWYQQKPGKAPKLLIYDASNLETGVPSRFSGSGSGTDFTFTISSLQPEDIATYNCQQCENFPITFGQGTRLEIKRTVAAPDVVMTQSPLSLPVTPGEPASISCRSSQSLLHSNGFNYVDWYLQKPGQSPHLLIYFGSYRASGVPDRFSGSGSGTDFTLKISRVEAEDVGVYYCMQALQTPPWTFGQGTKVEIR
notes: DVD-Ig, outer AB063 / inner AB005

GEO MEAN [1]: 44.8
B3: DVD2342 (bispecific antibody)
VH: QVQLQESGPGLVKPSQTLSLTCTVSGYSISSDFAWNWIRQPPGKGLEWMGYISYSGNTRYQPSLKSRITISRDTSKNQFFLKLNSVTAADTATYYCVTAGRGFPYWGQGTLVTVSSASTKGPEVQLVESGGGLVQPGGSLRLSCAASGFTFTDYTMDWVRQAPGKGLEWVADVNPNSGGSIYNQRFKGRFTLSVDRSKNTLYLQMNSLRAEDTAVYYCARNLGPSFYFDYWGQGTLVTVSS
VL: DIQMTQSPSSMSVSVGDRVTITCHSSQDINSNIGWLQQKPGKSFKGLIYHGTNLDDGVPSRFSGSGSGTDYTLTISSLQPEDFATYYCVQYAQFPWTFGGGTKLEIKRTVAAPDIQMTQSPSSLSASVGDRVTITCKASQDVSIGVAWYQQKPGKAPKLLIYSASYRYTGVPSRFSGSGSGTDFTLTISSLQPEDFATYYCQQYYIYPYTFGQGTKVEIK

GEO MEAN [1]: 24.1
B5: DVD2346 (bispecific antibody)
VH: QVQLQESGPGLVKPSQTLSLTCTVSGYSISSDFAWNWIRQPPGKGLEWMGYISYSGNTRYQPSLKSRITISRDTSKNQFFLKLNSVTAADTATYYCVTAGRGFPYWGQGTLVTVSSASTKGPEVQLVQSGGGLVKPGGSLRLSCAASGFTFSSFAMHWVRQAPGKGLEWISVIDTRGATYYADSVKGRFTISRDNAKNSLYLQMNSLRAEDTAVYYCARLGNFYYGMDVWGQGTTVTVSS
VL: DIQMTQSPSSMSVSVGDRVTITCHSSQDINSNIGWLQQKPGKSFKGLIYHGTNLDDGVPSRFSGSGSGTDYTLTISSLQPEDFATYYCVQYAQFPWTFGGGTKLEIKRTVAAPEIVLTQSPGTLSVSPGERATLSCRASQSIGSSLHWYQQKPGQAPRLLIKYASQSLSGIPDRFSGSGSGTDFTLTISRLEPEDFAVYYCHQSSRLPHTFGQGTKVEIK

binding result [2]: no binding (tested: 10-200 nM)
Kd [4]: 1.5 nM
koff [4]: 7e-05 s⁻¹
kon [4]: 46000 M⁻¹ s⁻¹
B6: DVD2327 (bispecific antibody)
VH: EVQLLESGGGLVQPGGSLRLSCTASGFTFSSYAMNWVRQAPGKGLEWVSAISGSGGTTFYADSVKGRFTISRDNSRTTLYLQMNSLRAEDTAVYYCAKDLGWSDSYYYYYGMDVWGQGTTVTVSSASTKGPEVQLVQSGGGLVKPGGSLRLSCAASGFTFSSYAMHWVRQAPGKGLEWVAVISYDGSNKYYADSVKGRFTISRDNSKNTLYLQMNSLRAEDTAVYYCARFSGWPNNYYYYGMDVWGQGTTVTVSS
VL: DIQMTQFPSSLSASVGDRVTITCRASQGIRNDLGWYQQKPGKAPKRLIYAASRLHRGVPSRFSGSGSGTEFTLTISSLQPEDFATYYCLQHNSYPCSFGQGTKLEIKRTVAAPDVVMTQSPLSLPVTPGEPASISCRSSQSLLHSNGFNYVDWYLQKPGQSPHLLIYFGSYRASGVPDRFSGSGSGTDFTLKISRVEAEDVGVYYCMQALQTPPWTFGQGTKVEIR
notes: DVD-Ig, outer AB011 / inner AB005

binding result [2]: no binding (tested: 10-200 nM)
Kd [4]: 0.11 nM
koff [4]: 6.6e-06 s⁻¹
kon [4]: 60000 M⁻¹ s⁻¹
B10: DVD2325 (bispecific antibody)
VH: EVQLVQSGGGLVKPGGSLRLSCAASGFTFSSFAMHWVRQAPGKGLEWISVIDTRGATYYADSVKGRFTISRDNAKNSLYLQMNSLRAEDTAVYYCARLGNFYYGMDVWGQGTTVTVSSASTKGPEVQLVQSGGGLVKPGGSLRLSCAASGFTFSSYAMHWVRQAPGKGLEWVAVISYDGSNKYYADSVKGRFTISRDNSKNTLYLQMNSLRAEDTAVYYCARFSGWPNNYYYYGMDVWGQGTTVTVSS
VL: EIVLTQSPGTLSVSPGERATLSCRASQSIGSSLHWYQQKPGQAPRLLIKYASQSLSGIPDRFSGSGSGTDFTLTISRLEPEDFAVYYCHQSSRLPHTFGQGTKVEIKRTVAAPDVVMTQSPLSLPVTPGEPASISCRSSQSLLHSNGFNYVDWYLQKPGQSPHLLIYFGSYRASGVPDRFSGSGSGTDFTLKISRVEAEDVGVYYCMQALQTPPWTFGQGTKVEIR
notes: DVD-Ig, outer AB077 / inner AB005

binding result [2]: no binding (tested: 10-200 nM)
B11: DVD2317 (bispecific antibody)
VH: EVQLVESGGGLVQPGGSLRLSCAASGFTFTDYTMDWVRQAPGKGLEWVADVNPNSGGSIYNQRFKGRFTLSVDRSKNTLYLQMNSLRAEDTAVYYCARNLGPSFYFDYWGQGTLVTVSSASTKGPEVQLVQSGGGLVKPGGSLRLSCAASGFTFSSYAMHWVRQAPGKGLEWVAVISYDGSNKYYADSVKGRFTISRDNSKNTLYLQMNSLRAEDTAVYYCARFSGWPNNYYYYGMDVWGQGTTVTVSS
VL: DIQMTQSPSSLSASVGDRVTITCKASQDVSIGVAWYQQKPGKAPKLLIYSASYRYTGVPSRFSGSGSGTDFTLTISSLQPEDFATYYCQQYYIYPYTFGQGTKVEIKRTVAAPDVVMTQSPLSLPVTPGEPASISCRSSQSLLHSNGFNYVDWYLQKPGQSPHLLIYFGSYRASGVPDRFSGSGSGTDFTLKISRVEAEDVGVYYCMQALQTPPWTFGQGTKVEIR
notes: DVD-Ig, outer AB080 / inner AB005
